“And” between values parts separate entries of the source, which are not always exact repeats. Identical values can stand only once.
B1: wild-type emerin (residues 1–222), the full nucleoplasmic domain (domain or fragment)
chain: MDNYADLSDTELTTLLRRYNIPHGPVVGSTRRLYEKKIFEYETQRRRLSPPSSSAASSYSFSDLNSTRGDADMYDLPKKEDALLYQSKGYNDDYYEESYFTTRTYGEPESAGPSRAVRQSVTSFPDADAFHHQVHDDDLLSSSEEECKDRERPMYGRDSAYQSITHYRPVSASRSSLDLSYYPTSSSTSFMSSSSSSSSWLTRRAIRPENRAPGAGLGQDRQ
notes: emerin, residues 1–222, the entire nucleoplasmic domain, lacking the transmembrane domain; also called emr; WT; source: expressed in bacteria and purified
B2: emerin (residues 1–222) alanine substitution mutant m196 (domain or fragment)
chain: MDNYADLSDTELTTLLRRYNIPHGPVVGSTRRLYEKKIFEYETQRRRLSPPSSSAASSYSFSDLNSTRGDADMYDLPKKEDALLYQSKGYNDDYYEESYFTTRTYGEPESAGPSRAVRQSVTSFPDADAFHHQVHDDDLLSSSEEECKDRERPMYGRDSAYQSITHYRPVSASRSSLDLSYYPTSSSTSFMSSSSAASSWLTRRAIRPENRAPGAGLGQDRQ

What was measured:
[1] = molecular target: T1, rabbit actin (Cytoskeleton, catalog #AKL95) (rabbit, UniProt P68135 1-377); assay: cell-based or functional assay
[2] = molecular target: T2, purified actin (F-actin or G-actin; species not told for these experiments) ( (purified chicken and rabbit …, UniProt P68135 1-377); assay: F-actin column (affinity determination); F-actin column used to determine the affinity of F-actin for emerin; n = 8; conditions: both partners purified
[3] = molecular target: T2, purified actin (F-actin or G-actin; …); assay: co-sedimentation; actin polymerized in KMEI buffer, incubated 30 min with recombinant emerin (4 μM in text and methods, 2 μM in the legend), pelleted at 100,000g for 1 h; SDS-PAGE, Coomassie blue; conditions: both partners purified
[4] = molecular target: T1, rabbit actin (Cytoskeleton, catalog …); assay: pyrene–actin polymerization rate against emerin concentration; 2 μM rabbit actin with 5% pyrene–actin; emerin 0.1 to 4.4 μM added just prior to polymerization; R/cR; equilibrium affinity from activity; conditions: both partners purified
[5] = molecular target: T1, rabbit actin (Cytoskeleton, catalog …); assay: pointed-end elongation of gelsolin–actin seeds (pyrene–actin) against emerin concentration; gelsolin–actin dimers (10 nM), 2 μM actin, 0 to 2 μM wild-type emerin 1–222; apparent Kd from the reduction of the rate; n = 12; conditions: both partners purified
[6] = molecular target: T1, rabbit actin (Cytoskeleton, catalog …); assay: depolymerization of actin filaments grown from gelsolin–actin seeds against emerin concentration; filaments from 2 μM actin and gelsolin–actin seeds diluted 10-fold to 0.2 μM actin with 0–2 μM emerin 1–222; apparent Kd; n = 6; conditions: both partners purified

| Binder | critical concentration for pointed-end growth (5 nM gelsolin–actin seeds, 625 nM emerin, 16 h at room temperature) [1] | rate of depolymerization of filaments grown from gelsolin–actin seeds, diluted to 0.2 μM actin, emerin 0–2 μM [1] | rate of depolymerization of preformed filaments capped at the barbed end with capping protein (CapZ), diluted into 0.2 μM actin (data not shown) [1] | rate of pyrene–actin polymerization (R/cR), emerin 0.1 to 4.4 μM, 2 μM actin [1] | Kd [2] | stoichiometry N [3] | Kd [4] | Kd [5] | Kd [6] | rate of pyrene–actin polymerization, 1 μM mutant, 2.0 μM G-actin, against wild-type emerin [1] |
| --- | --- | --- | --- | --- | --- | --- | --- | --- | --- | --- |
| B1 | 2.3 to 2.7 fold | ≤ 8 fold | 10 fold | 4 fold | 480 nM and 300 to 500 nM | ~300 actin monomers per emerin molecule | 420 nM | 430 nM and 300 to 500 nM | 380 nM and 350 to 450 nM |  |
| B2 |  |  |  |  |  |  |  |  |  | ~50 % of wild-type emerin |
